For data set [1], the target named is EcMazE full-length;EcMazF (Escherichia coli;Escherichia coli, UniProt P0AE72;P0AE70 1-82;1-111, |). Nature of the data set: EMSA. (In general: A gel shift assay detects complexes by their altered migration in electrophoresis.)
The target of data set [2] is T1, EcMazE1-50 (Escherichia coli, UniProt P0AE72 1-50).
T1 chain: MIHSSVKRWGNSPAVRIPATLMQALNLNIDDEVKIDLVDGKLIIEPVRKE
Nature of the data set: ITC. (In general: ITC needs no label: the signal is the heat of the interaction.)

A further data set has as its target EcMazE full-length (Escherichia coli, UniProt P0AE72 1-82). Nature of the data set: ITC.
Data set [3] deals with T1, EcMazE1-50. Nature of the data set: NMR.
The data set “NMR solution structure” concerns the molecule itself. Nature of the data set: NMR solution structure.
The target in data set [4] is T1, EcMazE1-50. Nature of the data set: ITC.

Where two headings read alike, the source gives them in different places.

For orientation: Kd means a measure of binding affinity in units of concentration. Read a high Kd as weaker binding. One may read the stoichiometry N as a count of units in the complex or per binding partner.

EcMazE full-length, sequence (P0AE72 whole entry): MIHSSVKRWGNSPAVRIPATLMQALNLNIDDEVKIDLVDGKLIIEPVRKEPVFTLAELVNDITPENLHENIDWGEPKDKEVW
EcMazE full-length;EcMazF, sequence (P0AE70 whole entry, one chain of several): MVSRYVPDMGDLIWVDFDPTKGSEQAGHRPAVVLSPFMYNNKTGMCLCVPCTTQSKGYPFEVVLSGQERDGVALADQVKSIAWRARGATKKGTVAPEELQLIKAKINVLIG

B1: DNA 'a' (EMSA probe) (dsDNA)
DNA 1: TTGATATATACTGT
DNA 2: ACAGTATATATCAA
For the molecule B1, the binding result in data set [1] was “binds”.

B2: DNA 'b' (dsDNA)
DNA 1: ATATACTGTATCTACATAT
DNA 2: ATATGTAGATACAGTATAT
B2 gave a Kd with EcMazE1-50 [2] of 2100 ± 600 nM.

B3: DNA 'a' (14 bp) (dsDNA)
DNA 1: TTGATATATACTGT
DNA 2: ACAGTATATATCAA
B3: the Kd with EcMazE1-50 [2] is 5600 ± 300 nM; with EcMazE full-length it was 5.1 ± 0.2 µM.

B4: DNA 'a' (15 bp, altered ends) (dsDNA)
DNA 1: CGTGATATATACTGC
DNA 2: GCAGTATATATCACG
On to B4, for which, in the data set with EcMazE1-50 [3], the binding result is “binds”.

B5: DNA 'c' (dsDNA)
DNA 1: GTATCTACAATGTAGATTG
DNA 2: CAATCTACATTGTAGATAC
For the molecule B5, in the data set with EcMazE1-50 [2], binding was put at a Kd of 600 ± 200 nM.

B6: truncated EcMazE^1–50 (N-terminal DNA binding domain of Escherichia coli antitoxin MazE) (domain or fragment)
chain: MIHSSVKRWGNSPAVRIPATLMQALNLNIDDEVKIDLVDGKLIIEPVRKE
Regarding B6, in “NMR solution structure”, the “stoichiometry N” value came out at 2.

B7: DNA 'cab' (dsDNA)
DNA 1: CTCGTATCTACAATGTAGATTGATATATACTGTATCTACATATGATAGCGT
DNA 2: ACGCTATCATATGTAGATACAGTATATATCAATCTACATTGTAGATACGAG
In the data set with EcMazE1-50 [4], B7 showed a Kd of 600 ± 500 nM.

Values taken from PMC4333400 (Nucleic Acids Research, 2015).
